The chains are these.
T1: EsCas13d, nuclease-dead (Eubacterium siraeum, UniProt B0MS50, R295A;H300A;R849A;H854A)
T1 sequence: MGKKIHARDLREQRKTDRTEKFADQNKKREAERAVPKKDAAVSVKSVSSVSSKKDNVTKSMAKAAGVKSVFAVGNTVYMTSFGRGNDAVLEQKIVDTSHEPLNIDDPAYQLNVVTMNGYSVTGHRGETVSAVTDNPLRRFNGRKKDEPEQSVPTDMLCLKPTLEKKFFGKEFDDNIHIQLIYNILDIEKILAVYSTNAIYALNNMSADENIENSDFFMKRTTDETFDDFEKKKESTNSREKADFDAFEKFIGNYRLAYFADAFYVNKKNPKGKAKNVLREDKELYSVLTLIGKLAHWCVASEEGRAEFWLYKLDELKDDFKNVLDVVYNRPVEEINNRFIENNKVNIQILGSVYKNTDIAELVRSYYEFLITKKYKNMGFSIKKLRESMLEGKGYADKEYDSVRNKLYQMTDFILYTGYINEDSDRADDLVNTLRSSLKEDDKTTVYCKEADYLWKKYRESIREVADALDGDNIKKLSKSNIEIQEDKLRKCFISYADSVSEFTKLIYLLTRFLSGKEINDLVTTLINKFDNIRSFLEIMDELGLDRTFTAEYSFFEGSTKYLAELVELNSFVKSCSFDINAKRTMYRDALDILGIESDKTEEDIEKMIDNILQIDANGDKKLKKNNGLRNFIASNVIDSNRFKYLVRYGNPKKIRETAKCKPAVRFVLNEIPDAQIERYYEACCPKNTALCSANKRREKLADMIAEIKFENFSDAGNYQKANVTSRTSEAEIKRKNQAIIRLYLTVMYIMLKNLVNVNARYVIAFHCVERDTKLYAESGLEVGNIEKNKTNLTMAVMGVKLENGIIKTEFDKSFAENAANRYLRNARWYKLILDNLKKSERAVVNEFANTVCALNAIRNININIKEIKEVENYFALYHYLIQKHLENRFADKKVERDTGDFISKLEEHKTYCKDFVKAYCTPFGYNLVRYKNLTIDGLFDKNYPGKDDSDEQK

B1: target 1 insU 3' of 18,insA 3' of 10 (mixed)
RNA 1: CACCCGUGCAAAAAUGCAGGGGUCUAAAACUGAGCGGAUAACCUCUCUAUGG
RNA 2: GGGAAUGGAUCCACAUCUACGAAUUCGUACCAUAUGAGAGGUUAAUCCGCUCACCGAGAUCGGAAGAGCACACGU
B2: target 1 G12U,C22U (mixed)
RNA 1: CACCCGUGCAAAAAUGCAGGGGUCUAAAACUGAGCGGAUAACCUCUCUAUGG
RNA 2: GGGAAUGGAUCCACAUCUACGAAUUCGUAUCAUAGAGAGUUUAUCCGCUCACCGAGAUCGGAAGAGCACACGU
B3: target 1 insU 3' of 22,insC 3' of 20 (mixed)
RNA 1: CACCCGUGCAAAAAUGCAGGGGUCUAAAACUGAGCGGAUAACCUCUCUAUGG
RNA 2: GGGAAUGGAUCCACAUCUACGAAUUCGUACUCACUAGAGAGGUUAUCCGCUCACCGAGAUCGGAAGAGCACACGU
B4: target 1 insA 3' of 11,insU 3' of 2 (mixed)
RNA 1: CACCCGUGCAAAAAUGCAGGGGUCUAAAACUGAGCGGAUAACCUCUCUAUGG
RNA 2: GGGAAUGGAUCCACAUCUACGAAUUCGUACCAUAGAGAGGUAUAUCCGCUCUACCGAGAUCGGAAGAGCACACGU
B5: target 1 insG 3' of 8,insU 3' of 5 (mixed)
RNA 1: CACCCGUGCAAAAAUGCAGGGGUCUAAAACUGAGCGGAUAACCUCUCUAUGG
RNA 2: GGGAAUGGAUCCACAUCUACGAAUUCGUACCAUAGAGAGGUUAUGCCGUCUCACCGAGAUCGGAAGAGCACACGU
B6: target 1 insG 3' of 22,insA 3' of 13 (mixed)
RNA 1: CACCCGUGCAAAAAUGCAGGGGUCUAAAACUGAGCGGAUAACCUCUCUAUGG
RNA 2: GGGAAUGGAUCCACAUCUACGAAUUCGUACGCAUAGAGAGAGUUAUCCGCUCACCGAGAUCGGAAGAGCACACGU
B7: target 1 C6A,C22G (mixed)
RNA 1: CACCCGUGCAAAAAUGCAGGGGUCUAAAACUGAGCGGAUAACCUCUCUAUGG
RNA 2: GGGAAUGGAUCCACAUCUACGAAUUCGUAGCAUAGAGAGGUUAUCAGCUCACCGAGAUCGGAAGAGCACACGU
B8: target 1 insG 3' of 21,insG 3' of 3 (mixed)
RNA 1: CACCCGUGCAAAAAUGCAGGGGUCUAAAACUGAGCGGAUAACCUCUCUAUGG
RNA 2: GGGAAUGGAUCCACAUCUACGAAUUCGUACCGAUAGAGAGGUUAUCCGCUGCACCGAGAUCGGAAGAGCACACGU
B9: target 1 G15A (mixed)
RNA 1: CACCCGUGCAAAAAUGCAGGGGUCUAAAACUGAGCGGAUAACCUCUCUAUGG
RNA 2: GGGAAUGGAUCCACAUCUACGAAUUCGUACCAUAGAAAGGUUAUCCGCUCACCGAGAUCGGAAGAGCACACGU
B10: target 1 C2G,A9U (mixed)
RNA 1: CACCCGUGCAAAAAUGCAGGGGUCUAAAACUGAGCGGAUAACCUCUCUAUGG
RNA 2: GGGAAUGGAUCCACAUCUACGAAUUCGUACCAUAGAGAGGUUUUCCGCUGACCGAGAUCGGAAGAGCACACGU
B11: target 1 A9U,A16G (mixed)
RNA 1: CACCCGUGCAAAAAUGCAGGGGUCUAAAACUGAGCGGAUAACCUCUCUAUGG
RNA 2: GGGAAUGGAUCCACAUCUACGAAUUCGUACCAUAGGGAGGUUUUCCGCUCACCGAGAUCGGAAGAGCACACGU
B12: target 1 insG 3' of 22,insA 3' of 5 (mixed)
RNA 1: CACCCGUGCAAAAAUGCAGGGGUCUAAAACUGAGCGGAUAACCUCUCUAUGG
RNA 2: GGGAAUGGAUCCACAUCUACGAAUUCGUACGCAUAGAGAGGUUAUCCGACUCACCGAGAUCGGAAGAGCACACGU
B13: target 1 insC 3' of 12,insG 3' of 9 (mixed)
RNA 1: CACCCGUGCAAAAAUGCAGGGGUCUAAAACUGAGCGGAUAACCUCUCUAUGG
RNA 2: GGGAAUGGAUCCACAUCUACGAAUUCGUACCAUAGAGAGGCUUAGUCCGCUCACCGAGAUCGGAAGAGCACACGU
B14: target 1 del7,del13 (mixed)
RNA 1: CACCCGUGCAAAAAUGCAGGGGUCUAAAACUGAGCGGAUAACCUCUCUAUGG
RNA 2: GGGAAUGGAUCCACAUCUACGAAUUCGUACCAUAGAGAGUUAUCGCUCACCGAGAUCGGAAGAGCACACGU
B15: target 1 del5 (mixed)
RNA 1: CACCCGUGCAAAAAUGCAGGGGUCUAAAACUGAGCGGAUAACCUCUCUAUGG
RNA 2: GGGAAUGGAUCCACAUCUACGAAUUCGUACCAUAGAGAGGUUAUCCCUCACCGAGAUCGGAAGAGCACACGU
B16: target 1 G5A,U8A (mixed)
RNA 1: CACCCGUGCAAAAAUGCAGGGGUCUAAAACUGAGCGGAUAACCUCUCUAUGG
RNA 2: GGGAAUGGAUCCACAUCUACGAAUUCGUACCAUAGAGAGGUUAACCACUCACCGAGAUCGGAAGAGCACACGU
B17: target 1 C4U (mixed)
RNA 1: CACCCGUGCAAAAAUGCAGGGGUCUAAAACUGAGCGGAUAACCUCUCUAUGG
RNA 2: GGGAAUGGAUCCACAUCUACGAAUUCGUACCAUAGAGAGGUUAUCCGUUCACCGAGAUCGGAAGAGCACACGU
B18: target 1 C7A,G17U (mixed)
RNA 1: CACCCGUGCAAAAAUGCAGGGGUCUAAAACUGAGCGGAUAACCUCUCUAUGG
RNA 2: GGGAAUGGAUCCACAUCUACGAAUUCGUACCAUAUAGAGGUUAUACGCUCACCGAGAUCGGAAGAGCACACGU
B19: target 1 insC 3' of 14,insA 3' of 10 (mixed)
RNA 1: CACCCGUGCAAAAAUGCAGGGGUCUAAAACUGAGCGGAUAACCUCUCUAUGG
RNA 2: GGGAAUGGAUCCACAUCUACGAAUUCGUACCAUAGAGACGGUUAAUCCGCUCACCGAGAUCGGAAGAGCACACGU
B20: target 1 insA 3' of 15,insA 3' of 10 (mixed)
RNA 1: CACCCGUGCAAAAAUGCAGGGGUCUAAAACUGAGCGGAUAACCUCUCUAUGG
RNA 2: GGGAAUGGAUCCACAUCUACGAAUUCGUACCAUAGAGAAGGUUAAUCCGCUCACCGAGAUCGGAAGAGCACACGU
B21: target 1 insU 3' of 20,insU 3' of 7 (mixed)
RNA 1: CACCCGUGCAAAAAUGCAGGGGUCUAAAACUGAGCGGAUAACCUCUCUAUGG
RNA 2: GGGAAUGGAUCCACAUCUACGAAUUCGUACCAUUAGAGAGGUUAUCUCGCUCACCGAGAUCGGAAGAGCACACGU
B22: target 1 U8C,C21U (mixed)
RNA 1: CACCCGUGCAAAAAUGCAGGGGUCUAAAACUGAGCGGAUAACCUCUCUAUGG
RNA 2: GGGAAUGGAUCCACAUCUACGAAUUCGUACUAUAGAGAGGUUACCCGCUCACCGAGAUCGGAAGAGCACACGU
B23: target 1 insC 3' of 9,insA 3' of 6 (mixed)
RNA 1: CACCCGUGCAAAAAUGCAGGGGUCUAAAACUGAGCGGAUAACCUCUCUAUGG
RNA 2: GGGAAUGGAUCCACAUCUACGAAUUCGUACCAUAGAGAGGUUACUCCAGCUCACCGAGAUCGGAAGAGCACACGU

The data set has as its target T1, EsCas13d, nuclease-dead. Kind of data set: crRNA (strand 1, pre-loaded); Mg2+; 40 mM Tris-HCl pH 7.5, 150 mM NaCl, 6 mM MgCl2, 1 mM DTT, 0.1% Tween-20, 0.2 mg/ml BSA; 25 C; 10 min per concentration, then washed. Conditions: tags: His6-TwinStrep-SUMO cleaved; N-terminal SNAP kept (SNAP-Surface 488); label: 3' end held by stalled T7 RNA polymerase.
In the case of B1, the affinity, expressed as Kd, was 41.2 ± 3.1 nM.
With B2, the Kd (in general, the constant that tells how readily two partners part at equilibrium) amounted to 21.7 ± 2.8 nM.
B3 gave a Kd of 18.3 ± 1.4 nM.
B4 came in with a Kd of 22.2 ± 1.1 nM.
The molecule B5 returned a Kd of 15.7 ± 1.1 nM.
Regarding B6, the Kd was determined as 11.5 ± 0.7 nM.
B7 came in with a Kd of 39 ± 5 nM.
B8 had a Kd of 43 ± 6 nM.
For the molecule B9, the dissociation constant (Kd) is 10.8 ± 0.4 nM.
B10 displayed an equilibrium dissociation constant (Kd) of 8.7 ± 1 nM.
With B11 the figure was 67 ± 9 nM.
Regarding B12, the Kd worked out at 23.1 ± 2.2 nM.
With B13 the figure was 24 ± 1.2 nM.
In turn, B14 registered a dissociation constant Kd of 15.6 ± 1.3 nM.
In the case of B15, the affinity, expressed as Kd, was 10.4 ± 0.5 nM.
In the case of B16, the Kd turned out to be 45 ± 4 nM.
For B17, the affinity, expressed as Kd, was 30 ± 4 nM.
The molecule B18 registered a Kd of 34 ± 6 nM.
In turn, B19 gave a Kd of 55 ± 8 nM.
Take B20: binding was put at a Kd of 9.7 ± 0.6 nM.
B21 yielded a Kd of 28.6 ± 1.5 nM.
B22 came in with a Kd of 9.6 ± 0.5 nM.
The molecule B23 gave a Kd of 14 ± 0.4 nM.

The values above are taken from paper PMC10786891, “Massively parallel profiling of RNA-targeting CRISPR-Cas13d”.
